Test results from patent publication US20220064272A1.
pEC50: −log10 of the molar value.

Tests used:
[1] = target: TauC3 (C-terminally truncated tau fragment ending at aspartate 421 of htau40) (human) (UniProt P10636); assay: binding ELISA on coated TauC3, OD650; left table (HC variants); isotype control
[2] = target: TauC3 (C-terminally truncated tau fragment ending at aspartate 421 of htau40) (human) (UniProt P10636); assay: binding ELISA on coated TauC3, OD650; right table (HM variants); isotype control

Sequence of TauC3 (C-terminally truncated tau fragment ending at aspartate 421 of htau40) (human) (P10636 other isoform, or with tags, fused parts or gaps): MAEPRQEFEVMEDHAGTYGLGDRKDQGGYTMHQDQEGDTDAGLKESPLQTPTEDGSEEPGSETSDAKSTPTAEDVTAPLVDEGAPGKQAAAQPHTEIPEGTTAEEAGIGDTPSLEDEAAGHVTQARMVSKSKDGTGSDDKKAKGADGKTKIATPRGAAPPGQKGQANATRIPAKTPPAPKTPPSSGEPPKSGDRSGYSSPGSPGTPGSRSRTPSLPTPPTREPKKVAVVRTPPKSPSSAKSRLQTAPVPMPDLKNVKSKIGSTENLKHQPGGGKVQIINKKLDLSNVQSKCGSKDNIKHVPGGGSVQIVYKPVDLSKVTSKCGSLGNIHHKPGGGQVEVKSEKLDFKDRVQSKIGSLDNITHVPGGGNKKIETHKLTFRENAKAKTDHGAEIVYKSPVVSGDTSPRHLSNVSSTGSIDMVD

Q: With isotype control antibody as the substance, how does the pEC50 [1] read?
A: 7.81

Q: And the pEC50 [2]?
A: 7.81
